Our source for the reduction of FRET efficiency with 2.5 μM deltarasin values is PMC7893820.

This test concerns the target mGFP-tagged N-RasG12V (UniProt P01111). Kind of test: FRET or BRET; FLIM-FRET in fixed HEK293 EBNA cells co-transfected with donor mGFP-NRasG12V and acceptor mCherry-PDE6δ plasmids (1:3); apparent FRET efficiency from the donor's lifetime; cells with scrambled siRNA in 0.1% DMSO (control), ICMT siRNA, or 2.5 μM deltarasin for 24 h.

Sequence of mGFP-tagged N-RasG12V (P01111 whole entry G12V): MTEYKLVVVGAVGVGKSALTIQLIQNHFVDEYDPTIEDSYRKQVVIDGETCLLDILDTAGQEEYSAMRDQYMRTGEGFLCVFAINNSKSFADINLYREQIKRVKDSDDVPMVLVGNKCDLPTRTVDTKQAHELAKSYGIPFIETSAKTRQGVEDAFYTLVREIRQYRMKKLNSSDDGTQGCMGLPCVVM
Sequence of mCherry-tagged PDE6δ (O43924 whole entry, stated change not applied): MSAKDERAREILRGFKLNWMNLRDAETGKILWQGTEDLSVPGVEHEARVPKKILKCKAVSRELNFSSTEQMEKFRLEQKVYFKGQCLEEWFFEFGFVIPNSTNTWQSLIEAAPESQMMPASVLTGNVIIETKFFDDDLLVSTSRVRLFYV

As to “mCherry-tagged PDE6δ (from UniProt O43924 1-150) (natural protein)”, the reduction of FRET efficiency with 2.5 μM deltarasin is 50%.
